# Data from the RNAGym collection of RNA variant scans (doi:10.1073/pnas.2313332121).
# B1: TPR t1 (parent)
# chain: GACCAAUCUGCCCUCAGAGCUCGAGAACAUCUUCGGAUGCAGAGGAGGCAGGCUUCGGUGGCGCGAUAGCGCCAACGUCCUCAACCUCCAAUGCAUCCCACCACAUGAUGAUGCCUGAAGAGCCUUGGUUUUUUG
# Variants of: B1
# Assay: polymerase ribozyme fitness, log enrichment relative to wild type (log ratio); higher = more active; in vitro selection for triplet polymerase activity
# Method in brief: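 In triplicate, a single round of in vitro selection was run on each mutant library, PCR-built and transcribed, covering one subunit of a heterodimeric triplet polymerase ribozyme. Frozen incubation at −7 °C followed annealing with a biotinylated primer, partner subunit and triplets, and extended constructs were then gel-excised, streptavidin-captured and taken through RT-PCR. Fitness is the logarithm of genotype enrichment over wild-type enrichment, from inverse-variance-weighted replicate averages of Illumina-sequenced inputs and outputs. […] only genotypes with ≥10 input reads and ≥1 read per output were kept.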
row,Variant,polymerase ribozyme fitness (log ratio)
1,GACCAAUCUGCCCUCAGAGCUCGAGAACAUCUUCGGAUGCAGAGGAGGCAGGCUUCGGUGGCGCGAUAGCGGCAACGUCAUCAACCUCCAAUGCAUCCCACCACAUGAUGAUGCCUGAAGAGCCUUGGUUUUUUG [C72G C80A],-5.5
2,GACCAAUCUGCCCUCAGAGCUCGAGAACAUCUUCGGAUGCAGAGGAGGCAGGCUUCGGUGGCGCGAUAGUGCCAACGUCCUCAACCUCCAAUGCAUCCCACCACAUGAUGAUGCCUGAAGAGCCUUGGUUUUUUU [C70U G135U],-1.13
3,GACCAAUCUGCCCUCAGAGCUCGAGAACAUCUUCGGAUGCAGCGGAGGCAGGCUUCGGUGGCGCGAUAGCGCCAACGUCCUCAAACUCCAAUGCAUCCCAACACAUGAUGAUGCCUGAAGAGCCUUGGUUUUUUG [A43C C85A C101A],-5.53
4,GACCAAUCUGCCCUCAGAGCUCGAGAACAUCUUCGGAUGCCGAGGAGACAGGCUUCGGUUGCGCGAUAGCGCCAACGUCCUCAACCUCCAAUGCAUCCCACCACAUGAUGAUGCCUGAAGAGCCUUGGUUUUUUG [A41C G48A G60U],-1.76
5,GACCAAUCUGCCCUCAGAGCUCGAGAACAUCUUCGUAUGCAGAGGAGGCAGGCUUCGGUGGCGCGAUAGCUCCAACGUCCUCAACCUCCAAUGCAUCCCACCACAUGAUGAUGCCUAAAGAGCCUUGGUUUUUUG [G36U G71U G117A],-4.25
6,GACCAAUCUGCCCUCUGAGCUCAAGAACAUCUUCGUAUGCAGAGGCCGCAGGCUUCGGUGGCGCGAUAGCGCAAACGUCCUCAACCUCCAAUGCAUCCCACCACAUGAUGAUGUCUGAAGAGCCUUGGGUUAUUG [A16U G23A G36U A46C G47C C73A C114U U129G U132A],-7.62
7,GACCAAUCUGCCCUCAGAGCUCCAGAACACCUUCGGAUGCAUAGGAGGCAGGCUUCGGUGGCGCGAUAACGCCAACGGCCUCAACCUCCAAUGCAUCCCACCACCUGAUGAUGCGUGAAGAGCCUUGGUUUUUUG [G23C U30C G42U G69A U78G A105C C115G],-7.04
8,GACCAAUCUGCCCUCAGAGCUCGAGAACAUCUUCGGAUGCAGAGGAGGCCGGCUUCGGUGGCGCGAUAGCGCCAACGGCCUCAACCUCCAAUGCAUCCCACCACAUGAUCAUGCCUGAAAAGCUUUGGUUUUUUG [A50C U78G G110C G120A C124U],-4.98
9,GACCAAUCUGCCCUCAGAGCUCGAGAACAUCUUCGGAUGCAGAGGAGGCAGGCUUAGGUGGCGCGAUAGCGCCAACGUCCUCAACCUCCAAUGCAUCCCACCACAUGAUGAUGCAUGAAGAGCCUUGGUUUUUUG [C56A C115A],-0.059
10,GACCAAUCUGCCCUCAGAGCUCGAGAACAUCUUCGGAUGCCGAGGAGGCAGGCUUCGGUGGCGCGAUAGCGCCAACGUCCUCAACCUUCAACGCAUCCCACCAUAUGAUGCUGCCUGAAGAGCCGUGGUUUCUUG [A41C C88U U92C C104U A111C U125G U132C],-4.35
11,GACCAAUCUGCCCUCAGAGCUCGAGAACAUCUUCGGAUGCAGUGGAGGCAGGCUUCGGUUGCGGGAUAGCGCGAACGUCCUCAAUCUCCAAUGCAUCGCACCACAUGAUGAUGCUUGAAGAGCCUUGGUUUUUUG [A43U G60U C64G C73G C85U C98G C115U],-6.57
12,GACCAAUCGGCCCUCAGAGCUCGAGAACAUCUUCGGAUGCAGAGGAGGCACGCUUCGGUGGCGCGAUAGCGCCAACGUCCUCAACCUCCAAUGCAUCCCACCACAUGAUGAUGCCUGAAGAGCCUUGGUUUUUUG [U9G G51C],-3.27
13,GACCAAUCUGCCCUCAGAGCUCGAGAACAUCUUCGGAUGCAGAGGAGGGAGGCUUCGGUGGCGCGAUAGCGCCAACGUCCUCAACCUCAAAUGCAUCCCACCACAUGAUGAUGCCUGAAGAGCCUUGGUUUUUUG [C49G C89A],-2.67
14,GACCAAUCUGCCCUAAGAGCUCGAGAACAUCUUCGGAUCCAGAGGAGGCAGGCUUCGGUGGCGCGAUAGCGCCAACGUCCUCAACCUCCAAUGCAUCCCACCACAUGAUGAUGCCUGAAGAGCCUUGGUUUUUUG [C15A G39C],-3.41
15,GACCAAUCUGCCCUCAGAGUUCGAGAACAUCUUCCGAUGCAGAGGAGGCAGGCUUCUGUGGCGCGAUAGCGCCAACGUCUUCAACCUCCAAUGCAUCCCACCACAUGAUGAUGCCUGAAGAGCCUUGGGUUUUUG [C20U G35C G57U C80U U129G],-5.92
16,GACAAAUCUGCCCUCAGAGCUCGAGAACAUCUUCGGAUGCAGAGGAGGCAGGCUUCGGUGGCGCGAUAGCGCCAACGUCCUCAACCUACAAUGCAUCCCACCACAUGAUGAUGCCUGAAGAGCCUUGGUUUUUUG [C4A C88A],-1.56
17,GUCCAAUCUGCCCUCAGAGCUCGAGAACAUCCUCGGAUGCAGAGGAGGCAGGCUUCGGUGGAGCGAUAGCGCCAACGUCCUCAACCUCCAAUGCAUCCCACCACAUGAUGAUGCCUGAAGAGCCUUGGUUUUUUG [A2U U32C C62A],-4.44
18,GACCAAUCUGCCCUCAGAGCUCGAGAACAUCUUCGGAUGCAGAGGAGGCAGGCUUCGGUGGCGCGAUAGCGCCAACGUCCUCAACCUCCAAUGCAUCCCACCACAUGAUGAUGCCUGAAGAGCCUUGGUAUUUUG [U130A],-0.523
19,GACCAAUCUGCCCUCAGAGGUCGAGAACAUCUUCGGAUGCUGAGGAGGCAGGCUUCGGUGGCGCGAUAGCGCCAACGUCCUCAACCUCCAAUGCAUCCCACCACAUGAUGAUGCUUGAAGAGCCUUGGUUUUUUG [C20G A41U C115U],-4.6
20,GACCAUUCUGCCCUCAGAGCUCGAGAACAUCUUCGGAUGCAGAGGAGGCAGGCUUCGGUGGCGCGAUAGCGCCGACGUCCUCAACCUCCAAUGCAUCCCACCACAUGAUGAUGCCUGAAGAGCCUUGGUUUUUUG [A6U A74G],-0.0819
21,GACCAAUCUGCCCUCAGAGCUCGAGAACAUCUUCGGAUGCAGAGGAGGCAGGCUUCGGUGGCCCGAUAGCGCCAACGUCCUCAACCUCCAAUGCAUCCCACCACAUGAUGAUGCCUGAAGAGACUUAGUUUUUUC [G63C C123A G127A G135C],-0.151

row,Variant,polymerase ribozyme fitness (log ratio)
1,GACCAAUCUGCCAUCAGAGCUCGAGAACAUCUUCGGAUGCAGAGGAGGCAGGCUUCGGUCGCGCGAUAGCGCCAACGUCCUCAGCCUCCAAUGCAUCCCACCACAUGAUGAUGCCUGAAGAGCCUUGGUUUUUUG [C13A G60C A84G],-2.96
2,GACCACUCUGCCCUCAGUGCUCGAGAACAUCUUCGGAUGCAGAGGAUGCAGGCUUCGGUGGCGCGAUAGCGCCAACGUCCUCAACCUCCAAUGCAUCCCACCACAUGAUGAUGCCUGAAGAGCCGUGGUUUUUUG [A6C A18U G47U U125G],-3.87
3,GACCAAUCUGCCCUCAGAGCUCGAGAACAUCUUCGGAUGCAGAGGAUGCAGGCUUCGGUGUCGCGAUAGCGCCAACGUCCUCAACCUCCAAUGCAUCCCACCACAUGAUAAUGCCUGAAGAGCCUUGGUUUUUUG [G47U G61U G110A],-3.87
4,GACCAAUCUGCCCUCAGAGCUCGAGAACAUCUUCGGAUGCAGGCGUGGCAGGCUUCGGUGGCCCGAUAGCGCCAACGUCCUCAACCUCCAAUGCAUCCCACCACAUGAUGAUGCCUGAAAAGCCUUGGUUUUUUG [A43G G44C A46U G63C G120A],-5.64
5,GACCUAUCUGCCCUCAGAGCUCGAGAACAUCUUCGGAUGCAGAGGAGGCAGGCUUCGGUGGCGCGAUAGCGCCAACGUCCUCAACCUCCAAUGCAUCCCACCACAUGAUGAUGCCUGAAGAGCAUUGGUUUUUUG [A5U C124A],2.04
6,GACCAAUGGGCGCUCAGAGCUCGAGAACAUCUUCGGAUGCAGAGGAGGGAGGCUUCGGUGGCGCGAUAGCGCCAACGUCCUCAACCUCCAUUGCAUCCCACCACAUGAUGAUGCCUGAAGAGCCUUGGUUUUUUG [C8G U9G C12G C49G A91U],-2.4
7,GACCAAUCUGCCCUCAGAGCUCGAGAACAUCUUCGGAUGCAGAGGAGGCAUGCUGCGGUGGCGCGAUAGCGCCAACGUCCUCAACCUCCAAUGCAUCCCACCACAUGAUGAUGCCUGAAGAGCCUUGGUUUUUUG [G51U U55G],-3.24
8,GACCAAUCUGCCCCCAGAGCUCGAGAACAUGUGCGGAUGCAGAGGAGGCAGGCUUCGGUGGCGCUAUAGCGCCAACGUCCUCAACCUCCAAUGCUUCCCACCACAUGAUGAUGCCUUAAGAGCCUUGGUUUUUUG [U14C C31G U33G G65U A95U G117U],-7.34
9,GACCAAUCUGCCCUCAGAGCUCGAGAUCAUCUUCGGAUGCAGAGGAGGCAGGCUUCGGUGGCGCGAUAGCGCCAACGUCCUCAGCCUCCAAUGCAUCCCACCACAUGAUGAUGCCUGAAGAGCCUUGGUUUUUUG [A27U A84G],-4.18
10,GACCAAUCUGCCCUCAGAGCUCGAGAACAUCUUCGGAUGCAGAGGAGUCAGGCCUCGGUGGCGCGAUAGCUCCAACGUCCUCAACCUCCAAUGCAUCCCACCACAUGAUGAUGCCCGAAGAUCCUUGGUUUUUUG [G48U U54C G71U U116C G122U],-2.51
11,GACCCAUCUGCCCUCAGAGCUCGAGAACAUCUUCGGAUGCAGAGGAGGCACGCUUCGGUGGCGCGAUAGCGCCAACAUCGUCAACCUCCAAUGCAUCCCACCACAUGAUGAUGCCUGAAGAGCCUUGGUUUUUUG [A5C G51C G77A C80G],-0.996
12,GACCAAUCUGCCGUCAGAGCUCGAGUACAUCUUCGGAUGCAGAGGAAGCAGGCUUCGGUGGCGCGAUAGCGCCAACGUCCUUAACCUCCAAUGCAUCCCACCACAUGAUGAUGCCUGAAGAGCCUUGGUUUUUUG [C13G A26U G47A C82U],-5.11
13,GACCAAUCUGCCCUCAGAGCUCGAGAACAUCUUCGGAUGCAGAGGAGGCAUGCUUCGGUGGCGCGAUAGCGCCAACGUCCUCAACCUCCAAUGCAUCCCACCAUAUGAUGAUGCCUGAAGAGCCUUGGUUUUUUG [G51U C104U],-3.67
14,GACCAAUCUGCCCUCAGAGCUCGAGAACAUCUUAGGAUGCAGAGGAGGCAGGCUUCGGUGGCGCGAUAGCGCCAACGUCCUCAACCUCCAAUGCAUCCCAUCACAUGAUGAUGCCUGAAGAGCCUUGGUUUUUUG [C34A C101U],-2.53
15,GACCAAUCUGCCCUCAGAGCUCGAGAACAUCUUCGGAUGCAGAGGAGGCAGGCUUCGGUGGCGCGAUAGCGCCAACGUCCUCAACCUCCAAUGCAUCCCACCACAAGAUGAUGCCUGAACAGCCUUGGUGUUUUG [U106A G120C U130G],0.744
16,GACCAAUCUGCCCUCAGAGCUCGAGAACAUCUUCGGAUGCAGAGGAGGCAGGCUUGGGUGGCGCGAUAGCGCCAACGUCCUCAACCUCCAAUGCAUCCCACCACAUGAUGAUCCCUGAAGAGCCUUGGUUUUUUG [C56G G113C],-1.92
17,GACCAAUCUGCCCUCAGAGCUCGAGAGCAUCUUCGGAUGCAGAGGAAGCAGGGUUCGGUGGCGCGAUAGCGCCAACGUCCUCAACCUCCAAUGCAUCCCACCACAUGAUGAUGCCUGAAGAGCCUUGGUUUUUUG [A27G G47A C53G],-2.77
18,GACCAAUCUGCCCUCAGAGCUCGAGAACAUCUUCGGAUGCAGAGGAGGCAGGCUUCGGUGGCGCGAUAGCGUCAACGUCCUCAACCUCCAAUGCAUCCCACCACAUGAUGAUGCCUGAAAAGCUUUGGUUUUUUG [C72U G120A C124U],1.83
19,GACCAAUCUGCCCUCAGAGCUCGAGAACAUCUUCGGAUGCAGAGGAGGCAGGCUUCGGUGGCGCGAUAUCGCCAACGUCCUCAACCUCCAAUGCAUCCCACCAAAUGAUGAUCCCUGAAGAGCCUUGGUUUUUUG [G69U C104A G113C],-1.8
20,GACCAAUGUGCCCUCAGAGCUCGAGAUCUUCUUCGGAUGCAGAGGAGGCAGGCUUCGGUGGCGCGAUAUCGCCAACGUCCUCAACCUCCAAUGCAUCCCAACACAUGAUGAUGUCUGAAGAGCCUUGGUUUUUUG [C8G A27U A29U G69U C101A C114U],-5.18
21,GACCAAUCUGCCCUCAGAGCUCGAGAACAUCUUCGGAUGCAGAGGAGGCAGGCUUCGGUGGCGCGAUAACGCCAACGUCCACAACCUCCAAUGCAUCCCACCACAUGAUGAUGCCUGAAGAGCAUUGGUUUUUUG [G69A U81A C124A],-1.99
